# Reference: patent US20170157245A1, “TREATMENT OF GASTRIC CANCER” (OncoMed Pharmaceutlcals, Inc., priority 2014, published 2017)
# Changes are numbered by the printed parent chain.
# B1: demcizumab: anti-DLL4 antibody, demcizumab (also known as OMP-21M18); heavy chain variable region SEQ ID NO:9 (antibody, chains of the INN, looked up, V domains shown)
# VH: QVQLVQSGAEVKKPGASVKISCKASGYSFTAYYIHWVKQAPGQGLEWIGYISSYNGATNYNQKFKGRVTFTTDTSTSTAYMELRSLRSDDTAVYYCARDYDYDVGMDYWGQGTLVTVSS
# VL: DIVMTQSPDSLAVSLGERATISCRASESVDNYGISFMKWFQQKPGQPPKLLIYAASNQGSGVPDRFSGSGSGTDFTLTISSLQAEDVAVYYCQQSKEVPWTFGGGTKVEIK
# B2: 219R45-MB-21R83: anti-hVEGF/anti-hDLL4 bispecific antibody; heavy chains SEQ ID NO:7 and SEQ ID NO:62, two light chains SEQ ID NO:8 (antibody, chains of the INN, looked up, V domains shown)
# VH: B1 VH with S53N, G56R
# VL: B1 VL
# VH2: QVQLVQSGAEVKKPGASVKVSCKASGYTFTNYWMHWVRQAPGQGLEWMGDINPSNGRTSYKEKFKRRVTLSVDKSSSTAYMELSSLRSEDTAVYFCTIHYDDKYYPLMDYWGQGTLVTVSS
# VL2: B1 VL
# What was measured:
# [1] = system: xenograft tumor models; details: Hoey et al., 2009, U.S. Pat. No. 7,750,124; cited from earlier work
# [2] = system: OMP-STM1 gastric tumor xenografts; experiment: Inhibition of OMP-STM1 gastric tumor growth in vivo; details: subcutaneous xenograft in NOD/SCID mice, 3 mg/kg weekly intraperitoneally for 4 weeks, given plus anti-mVEGF/anti-mDLL4 bispecific antibody, compared with control, anti-DLL4 and anti-VEGF antibodies
# Description: FIG. 1. […] OMP-STM1 gastric tumor cells were injected subcutaneously into NOD/SCID mice. Mice were treated with control antibody (-[…]-), anti-hDLL4 antibody 21M18 (demcizumab) plus anti-mDLL4 antibody (-▪-), anti-VEGF antibody bevacizumab plus anti-mVEGF antibody (-⋄-), or anti-VEGF/anti-DLL4 bispecific antibody 219R45-MB-21M83 (305B83) plus anti-mDLL4/anti-mVEGF antibody (-▾-). Data is shown as tumor volume […] over days post-treatment. Antibodies were administered intraperitoneally at a dose of 3 mg/kg once a week. * indicates p<0.05 vs control antibody as assessed by two-way ANOVA.
# Single cell suspensions of OMP-STM1 gastric tumor xenografts (50,000 cells) were injected subcutaneously into the flanks of 6-8 week old NOD/SCID mice. Tumors were allowed to grow for 34 days until they reached an average volume of 110 mm^3. The mice were randomized (n=8 per group) and treated with anti-hDLL4 antibody 21M18 (demcizumab) plus anti-mDLL4, anti-hVEGF antibody bevacizumab plus anti-mVEGF, anti-hVEGF/anti-hDLL4 bispecific antibody 219R45-MB-21R83 (305B83) plus an anti-mVEGF/anti-mDLL4 bispecific antibody, or control antibody. Antibodies were dosed at 3 mg/kg weekly by intraperitoneal injection for 4 weeks. Tumor growth was monitored and tumor volumes were measured with electronic calipers at the indicated time points. Data are expressed as mean±S.E.M.
molecule,measurement,setting,value
B1,frequency of cancer stem cells,[1],reduce the frequency of cancer stem cells
same,tumor growth inhibition,[1],inhibit tumor growth
B2,inhibition of OMP-STM1 gastric tumor growth (tumor volume),"[2]; listed as 219R45-MB-21M83, 3 mg/kg",Inhibition of gastric tumor growth in vivo
same,inhibition of OMP-STM1 gastric tumor growth (tumor volume),"[2]; listed as bispecific anti-VEGF/anti-DLL4 antibody, 3 mg/kg",greater inhibition of OMP-STM1 gastric tumor growth than either anti-DLL4 antibodies alone or anti-VEGF antibodies alone
